Measurements reported in patent publication US6995141B1, “Interleukin 1β protease and interleukin 1β protease inhibitors” (Vertex Pharmaceuticals Incorporated, priority 1990, dated 2006).
Non-standard residues stand in square brackets, D forms with d.

Key:
[1] = target: T1, purified human IL-1β pro enzyme (Homo sapiens, UniProt P29466); assay: Cleavage of synthetic peptide substrates by purified human IL-1β pro enzyme (RP-HPLC); assay type: biochemical; design: key to Reactivity Relative To Peptide 1: reactivity relative to peptide Ala112–Ser121 of precursor IL-1β; settings: for ability of IL-1β pro to cleave the substrate peptide (in words): Tables 1 and 2
T1 construct: beginning with amino acid 120; Based upon a molecular weight analysis, the approximate C-terminus of mature IL-1β pro is about amino acid 297; endogenous in cells; host or cells: THP-1 cells (ATCC), stimulated, lysed, six-step chromatography
T1 sequence (P29466 120-297): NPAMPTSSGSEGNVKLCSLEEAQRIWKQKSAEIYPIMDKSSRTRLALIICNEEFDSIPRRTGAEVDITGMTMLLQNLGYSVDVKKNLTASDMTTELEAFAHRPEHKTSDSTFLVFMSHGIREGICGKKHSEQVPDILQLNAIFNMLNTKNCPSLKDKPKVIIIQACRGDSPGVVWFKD
T1 sequence (P29466 317-404): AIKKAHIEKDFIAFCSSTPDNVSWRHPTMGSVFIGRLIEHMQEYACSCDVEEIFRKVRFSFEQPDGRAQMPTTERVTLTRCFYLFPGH
Experimental: This example illustrates the range of substrate specificity of purified human IL-1β pro enzyme to cleave a group of amino acid sequences. A variety of peptide substrates were prepared featuring changes in individual amino acids in the region corresponding to the cleavage site in human precursor IL-1β (His 115 to Pro 118). The reactivity of the peptide substrates was expressed relative to the peptide corresponding to Ala 112 to Ser 121 of the precursor IL-1β sequence.
Peptide solutions of standard concentration were prepared by dissolving about 2–3 mg of peptide substrate in water, loading the solution onto a Waters Sep-Pak C18 cartridge and washing three times with 5 ml of water. The peptide substrates were eluted with acetonitrile and then evaporated to dryness. Each substrate was standardized to 1 mM by amino acid analysis prior to use.
Purified human IL-1β pro enzyme (10 μl), peptide substrate in water (10 μl), and 10 mM Tris buffer, pH 8.0 containing 25% v/v glycerol (10 μl) were mixed and the mixtures were incubated at 37° C. for four hours. The reaction was quenched with by adding 1 M glycine/HCl buffer pH 2.0 (10 μl). The samples were then analyzed using RP-HPLC with a Vydac C18 column (0.46 cm×25 cm) and eluting with a linear gradient from 100% solvent A to 70% solvent A/30% solvent B over 30 minutes at a flow rate of 1 ml/min. The effluent was monitored at 280 nm absorbing product.
This example illustrates the effect of substrate peptide length on the ability of human IL-1β pro enzyme to cleave peptide substrates. […] Five substrate peptides were made that correspond to the amino acid sequence of the IL-1β pro cleavage site of human precursor IL-1.

[2] = target: T2, protease that generates mature IL-1β from the precursor polypeptide (Homo sapiens, UniProt P29466); settings: Black et al., FEBS Lett., 247:386–90 (1989); cited from earlier work
T2 construct: host or cells: partially purified (about 500-fold) from THP-1 cell lysates, per Black et al., FEBS Lett. 247:386-90 (1989)
T2 sequence (P29466 120-297 limits assumed): T1 sequence (P29466 120-297)
T2 sequence (P29466 317-404 limits assumed): T1 sequence (P29466 317-404)

IL-1β pro = target: T3, IL-1β pro (Homo sapiens, UniProt P29466); assay: Inhibition of IL-1β pro catalyzed degradation of preIL-1β, in vitro assay with Western blot; assay type: biochemical
T3 construct: beginning with amino acid 120; Based upon a molecular weight analysis, the approximate C-terminus of mature IL-1β pro is about amino acid 297
T3 sequence (P29466 120-297): T1 sequence (P29466 120-297)
T3 sequence (P29466 317-404): T1 sequence (P29466 317-404)
Experimental: Products were subjected to SDS-PAGE, transferred to nitrocellulose, and probed with an antibody raised against the COOH terminus of mature IL-1β. Lane 3, preIL-1β incubated with 25 μM of inhibitor; lane 4, preIL-1β incubated with 10 μM of inhibitor; lane 5, preIL-1β incubated with 5 μM inhibitor, lane 6, preIL-1β incubated with 1 μM inhibitor.
Boc-Asp-CH2F was tested for its ability to inhibit IL-1β pro catalyzed degradation of preIL-1β using an in vitro assay method. Black, et al., J. Biol. Chem., 263(19): 9437 (1988). Boc-Asp-CH2F was prepared in accordance with the method of example of 1A.
5 μl of preIL-1β (about 50 μg/ml in PBS) was mixed with 10 μl of purified IL-1β pro (15–75 μg/ml in PBS) and incubated at 37° C. for 30 minutes. The incubation was terminated by placing the samples on Dry Ice or by the addition of SDS sample buffer. PMSF was then added to a concentration of 1 mM, and the samples were dialyzed against water. After dialysis, the samples were concentrated to dryness in a Speed-Vac concentrator and dissolved in SDS sample buffer.
SDS-PAGE was carried out with 12% polyacrylamide gels. The gels were placed in transfer buffer (0.192 M glycine. 0.025 M Tris-HCl (pH 8.3), 20% v/v methanol), and protein was then electrophoresed onto nitrocellulos (Sartorius) in a Hoeffer transfer apparatus (1 h at maximum voltage). […]

[3] = target: Peptide 1, Ala-Tyr-Val-His-Asp-Ala-Pro-Val-Arg-Ser (human)
[4] = target: Peptide 2, Ala-Tyr-Val-His-Asn-Ala-Pro-Val-Arg-Ser
[5] = target: Peptide 3, Ala-Tyr-Val-His-Glu-Ala-Pro-Val-Arg-Ser
[6] = target: Peptide 4, Ala-Tyr-Val-His-(D-Asp)-Ala-Pro-Val-Arg-Ser
[7] = target: Peptide 5, Ala-Tyr-Val-His-Asp-Gly-Pro-Val-Arg-Ser
[8] = target: Peptide 6, Ala-Tyr-Val-His-Asp-Val-Pro-Val-Arg-Ser
[9] = target: Peptide 7, Ala-Tyr-Val-Phe-Asp-Ala-Pro-Val-Arg-Ser
[10] = target: Peptide 8, Ala-Tyr-Val-His-Asp-Ala-Ala-Val-Arg-Ser
[11] = target: T4, Peptide 10, Ac-Tyr-Val-His-Asp-Ala-Pro-Val-Arg-NH2 (human)
T4 sequence (peptide, N-terminal acetyl (Ac-); C-terminal amide (-NH2)): YVHDAPVR

[12] = target: Peptide 9, Glu-Ala-Tyr-Val-His-Asp-Ala-Pro (human)
[13] = Table 2, effect of substrate peptide length, conducted as in Example 1
[14] = Table 1, changes at cleavage site, 37° C., four hours, extent of peptide cleavage by RP-HPLC peak area at 280 nm

His-Asp-Ala-Pro- (Seq. I.D. No. 24) (HDAP) [Peptide 12, four amino acid substrate peptide]
Reactivity Relative To Peptide 1 [1, 13]: Not cleaved

O=C(O)CI [iodoacetate]
inhibition of the protease (in words) [2]: inhibited

Ala-Tyr-Val-His-Asn-Ala-Pro-Val-Arg-Ser (Seq. I.D. No. 14) (AYVHNAPVRS) [Peptide 2, substrate peptide, Asp changed to asparagine]
Reactivity Relative To Peptide 1 [1, 14]: <0.01 | ability of IL-1β pro to cleave the substrate peptide (in words) [1]: profound effect on the ability of IL-1β pro to cleave the substrate

Ala-Tyr-Val-His-Asp-Ala-Ala-Val-Arg-Ser (Seq. I.D. No. 20) (AYVHDAAVRS) [Peptide 8, substrate peptide, P2′ proline changed to alanine]
Reactivity Relative To Peptide 1 [1, 14]: 0.47 | ability of IL-1β pro to cleave the substrate peptide (in words) [1]: still cleaved by human IL-1β pro but only half as efficiently

Tyr-Val-His-Asp-Ala-Pro-Val-Arg- (Seq. I.D. No. 22) (Ac-YVHDAPVR-NH2) [Peptide 10, eight amino acid substrate peptide]
Reactivity Relative To Peptide 1 [1, 13]: 2.40 | ability of IL-1β pro to cleave the substrate peptide (in words) [1]: cleaved most efficiently

CC(C)(C)OC(=O)N[C@@H](CC(=O)O)C(=O)CF [Boc-Asp-CH2F]
inhibition of generation of mature IL-1β from preIL-1β (IL-1β pro; inhibitor concentration 1 μM): partially inhibits | inhibition of generation of mature IL-1β from preIL-1β (IL-1β pro; inhibitor concentration 5 μM): completely inhibits

Glu-Ala-Tyr-Val-His-Asp-Ala-Pro- (Seq. I.D. No. 21) (EAYVHDAPVRSL) [Peptide 9, substrate peptide of the precursor IL-1β cleavage site]
Reactivity Relative To Peptide 1 [1, 13]: 0.74

Val-His-Asp-Ala-Pro-Val- (Seq. I.D. No. 23) (VHDAPV) [Peptide 11, six amino acid substrate peptide]
Reactivity Relative To Peptide 1 [1, 13]: Not cleaved

Ala-Tyr-Val-His-Glu-Ala-Pro-Val-Arg-Ser (Seq. I.D. No. 15) (AYVHEAPVRS) [Peptide 3, substrate peptide, Asp changed to glutamic acid]
Reactivity Relative To Peptide 1 [1, 14]: <0.05 | ability of IL-1β pro to cleave the substrate peptide (in words) [1]: profound effect on the ability of IL-1β pro to cleave the substrate

CCN1C(=O)C=CC1=O [N-ethylmaleimide]
inhibition of the protease (in words) [2]: inhibited

Ala-Tyr-Val-Phe-Asp-Ala-Pro-Val-Arg-Ser (Seq. I.D. No. 19) (AYVFDAPVRS) [Peptide 7]
Reactivity Relative To Peptide 1 [1, 14]: 0.50 | ability of IL-1β pro to cleave the substrate peptide (in words) [1]: A similar result was obtained

Ala-Tyr-Val-His-(D-Asp)-Ala-Pro-Val-Arg-Ser (Seq. I.D. No. 16) (Ac-AYVH[dD]APVRS-NH2) [Peptide 4, substrate peptide, Asp changed to D-aspartate]
Reactivity Relative To Peptide 1 [1, 14]: <0.01 | ability of IL-1β pro to cleave the substrate peptide (in words) [1]: profound effect on the ability of IL-1β pro to cleave the substrate

Ala-Tyr-Val-His-Asp-Gly-Pro-Val-Arg-Ser (Seq. I.D. No. 17) (AYVHDGPVRS) [Peptide 5, substrate peptide, P1′ alanine replaced with glycine]
times more reactive than peptide 1 [1]: 3.4 times | Reactivity Relative To Peptide 1 [1, 14]: 3.40

Ala-Tyr-Val-His-Asp-Val-Pro-Val-Arg-Ser (Seq. I.D. No. 18) (AYVHDVPVRS) [Peptide 6, substrate peptide, P1′ alanine changed to valine]
Reactivity Relative To Peptide 1 [1, 14]: <0.05 | ability of IL-1β pro to cleave the substrate peptide (in words) [1]: effectively prevents proteolytic cleavage

B1: purified human IL-1β pro enzyme (interleukin 1β protease), purified from THP-1 cells (enzyme)
chain: T1 sequence (P29466 120-297)
Reactivity Relative To Peptide 1 (peptide cleavage, RP-HPLC) (relative to Peptide 1) [3]: 1 | Reactivity Relative To Peptide 1 (peptide cleavage, RP-HPLC) (relative to Peptide 1) [4]: < 0.01 | Reactivity Relative To Peptide 1 (peptide cleavage, RP-HPLC) (relative to Peptide 1) [5]: < 0.05 | Reactivity Relative To Peptide 1 (peptide cleavage, RP-HPLC) (relative to Peptide 1) [6]: < 0.01 | Reactivity Relative To Peptide 1 (peptide cleavage, RP-HPLC) (relative to Peptide 1) [7]: 3.4 | Reactivity Relative To Peptide 1 (peptide cleavage, RP-HPLC) (relative to Peptide 1) [8]: < 0.05 | Reactivity Relative To Peptide 1 (peptide cleavage, RP-HPLC) (relative to Peptide 1) [9]: 0.5 | Reactivity Relative To Peptide 1 (peptide cleavage, RP-HPLC) (relative to Peptide 1) [10]: 0.47 | Reactivity Relative To Peptide 1 (peptide cleavage, RP-HPLC) (relative to Peptide 1) [11]: 2.4 | Reactivity Relative To Peptide 1 (peptide cleavage, RP-HPLC) (relative to Peptide 1) [12]: 0.74
